Measured values from patent US20140087995A1 (published 2014).
Numbered stars: 1 amine (or outer) side, 2 acyl side, 3 side chain; on linkers, the order of the positions; unused ones are H or OH. Bridge positions count the residues as written; N and C are the ends. Square brackets hold non-standard residues; d marks the D form. Side chains are listed from the residue outwards. Ends that are not written are not given here. * marks the point of attachment. C20 diacid = O=C(O)CCCCCCCCCCCCCCCCCCC(=O)*; γGlu = O=C(O)[C@H](CCC(=O)[*:2])N[*:1]; AEEA = NCCOCCOCC(=O)O

T1: rat amylin receptor (rat calcitonin receptor + rat RAMP 3) (rat, UniProt P32214 25-516; Q9JJ73 23-147)
T1 construct: whole, on cells; Cell membranes of transiently transfected BHK tk'ts 13 cells (Assay VI); also called rAmylin-R; rat amylin 3(a) receptor
T1 sequence (looked up) 1: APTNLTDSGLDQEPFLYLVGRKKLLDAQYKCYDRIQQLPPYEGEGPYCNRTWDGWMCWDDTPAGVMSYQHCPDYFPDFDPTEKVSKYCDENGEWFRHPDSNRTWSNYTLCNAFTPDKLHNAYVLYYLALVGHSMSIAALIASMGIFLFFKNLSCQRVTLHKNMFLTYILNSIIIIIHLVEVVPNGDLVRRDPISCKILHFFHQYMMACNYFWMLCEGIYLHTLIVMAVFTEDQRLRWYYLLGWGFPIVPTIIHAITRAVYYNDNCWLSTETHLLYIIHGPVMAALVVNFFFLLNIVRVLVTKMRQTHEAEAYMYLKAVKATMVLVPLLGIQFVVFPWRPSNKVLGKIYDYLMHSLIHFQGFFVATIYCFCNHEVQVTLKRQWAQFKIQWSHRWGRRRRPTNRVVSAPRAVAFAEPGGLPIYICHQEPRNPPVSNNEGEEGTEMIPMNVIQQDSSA
T1 sequence (looked up) 2: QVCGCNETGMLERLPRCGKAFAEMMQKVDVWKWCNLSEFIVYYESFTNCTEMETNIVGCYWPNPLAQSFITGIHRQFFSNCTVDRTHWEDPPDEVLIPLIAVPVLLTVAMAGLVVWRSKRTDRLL

T2: rat calcitonin receptor (rat, UniProt P32214 25-516)
T2 construct: whole, on cells; Membranes prepared from transiently transfected BHK tk'ts 13 cells; also called rCTR; rat calcitonin (a) receptor
T2 sequence (looked up): T1 sequence (looked up) 1

T3: rat amylin receptor (rat calcitonin receptor + rat RAMP 3) (rat, UniProt P32214 25-516; Q9JJ73 23-147)
T3 construct: whole, on cells; Membranes prepared from transiently transfected BHK tk'ts 13 cells; also called rAmylin-R; rat amylin 3(a) receptor
T3 sequence (looked up) 1: T1 sequence (looked up) 1
T3 sequence (looked up) 2: T1 sequence (looked up) 2

T4: rat calcitonin receptor (rat, UniProt P32214 25-516)
T4 construct: whole, on cells; Cell membranes of transiently transfected BHK tk'ts 13 cells (Assay VIII); also called rCTR; rCT
T4 sequence (looked up): T1 sequence (looked up) 1

B1: N^ε1-[2-[2-[2-[[(4S)-4-carboxy-4-(19-carboxynonadecanoylamino)butanoyl]amino]ethoxy]ethoxy]acetyl]-[Arg17,Pro21,Pro27,Pro28,Pro31]-h-amylin (peptide)
peptide: K([AEEA-γGlu-C20 diacid])CNTATCATQRLANFLRHSSPNFGAIPPSTPVGSNTY-NH2
modifications: disulfide 2-7
notes: Acylated analogue of human amylin; also called compound 53
B2: N^ε1-[2-[2-[2-[[(4S)-4-carboxy-4-(19-carboxynonadecanoylamino)butanoyl]amino]ethoxy]ethoxy]acetyl]-[Arg17,Pro21,Pro27,Pro28,Pro34]-h-amylin (peptide)
peptide: K([AEEA-γGlu-C20 diacid])CNTATCATQRLANFLRHSSPNFGAIPPSTNVGPNTY-NH2
modifications: disulfide 2-7; N-terminus assumed
SMILES: CC[C@H](C)[C@H](NC(=O)[C@H](C)NC(=O)CNC(=O)[C@H](Cc1ccccc1)NC(=O)[C@H](CC(N)=O)NC(=O)[C@@H]1CCCN1C(=O)[C@H](CO)NC(=O)[C@H](CO)NC(=O)[C@H](Cc1c[nH]cn1)NC(=O)[C@H](CCCNC(=N)N)NC(=O)[C@H](CC(C)C)NC(=O)[C@H](Cc1ccccc1)NC(=O)[C@H](CC(N)=O)NC(=O)[C@H](C)NC(=O)[C@H](CC(C)C)NC(=O)[C@H](CCCNC(=N)N)NC(=O)[C@H](CCC(N)=O)NC(=O)[C@@H](NC(=O)[C@H](C)NC(=O)[C@@H]1CSSC[C@H](NC(=O)[C@@H](N)CCCCNC(=O)COCCOCCNC(=O)CC[C@H](NC(=O)CCCCCCCCCCCCCCCCCCC(=O)O)C(=O)O)C(=O)N[C@@H](CC(N)=O)C(=O)N[C@@H]([C@@H](C)O)C(=O)N[C@@H](C)C(=O)N[C@@H]([C@@H](C)O)C(=O)N1)[C@@H](C)O)C(=O)N1CCC[C@H]1C(=O)N1CCC[C@H]1C(=O)N[C@@H](CO)C(=O)N[C@H](C(=O)N[C@@H](CC(N)=O)C(=O)N[C@H](C(=O)NCC(=O)N1CCC[C@H]1C(=O)N[C@@H](CC(N)=O)C(=O)N[C@H](C(=O)N[C@@H](Cc1ccc(O)cc1)C(N)=O)[C@@H](C)O)C(C)C)[C@@H](C)O
notes: Acylated analogue of human amylin; also called compound 55
B3: N^ε1-[2-[2-[2-[[(4S)-4-carboxy-4-(19-carboxynonadecanoylamino)butanoyl]amino]ethoxy]ethoxy]acetyl]-[Arg17,Pro21,Pro27,Pro29,Pro31]-h-amylin (peptide)
peptide: K([AEEA-γGlu-C20 diacid])CNTATCATQRLANFLRHSSPNFGAIPSPTPVGSNTY-NH2
modifications: disulfide 2-7; N-terminus assumed
SMILES: CC[C@H](C)[C@H](NC(=O)[C@H](C)NC(=O)CNC(=O)[C@H](Cc1ccccc1)NC(=O)[C@H](CC(N)=O)NC(=O)[C@@H]1CCCN1C(=O)[C@H](CO)NC(=O)[C@H](CO)NC(=O)[C@H](Cc1c[nH]cn1)NC(=O)[C@H](CCCNC(=N)N)NC(=O)[C@H](CC(C)C)NC(=O)[C@H](Cc1ccccc1)NC(=O)[C@H](CC(N)=O)NC(=O)[C@H](C)NC(=O)[C@H](CC(C)C)NC(=O)[C@H](CCCNC(=N)N)NC(=O)[C@H](CCC(N)=O)NC(=O)[C@@H](NC(=O)[C@H](C)NC(=O)[C@@H]1CSSC[C@H](NC(=O)[C@@H](N)CCCCNC(=O)COCCOCCNC(=O)CC[C@H](NC(=O)CCCCCCCCCCCCCCCCCCC(=O)O)C(=O)O)C(=O)N[C@@H](CC(N)=O)C(=O)N[C@@H]([C@@H](C)O)C(=O)N[C@@H](C)C(=O)N[C@@H]([C@@H](C)O)C(=O)N1)[C@@H](C)O)C(=O)N1CCC[C@H]1C(=O)N[C@@H](CO)C(=O)N1CCC[C@H]1C(=O)N[C@H](C(=O)N1CCC[C@H]1C(=O)N[C@H](C(=O)NCC(=O)N[C@@H](CO)C(=O)N[C@@H](CC(N)=O)C(=O)N[C@H](C(=O)N[C@@H](Cc1ccc(O)cc1)C(N)=O)[C@@H](C)O)C(C)C)[C@@H](C)O
notes: Acylated analogue of human amylin; also called compound 54
B4: N^ε1-[2-[2-[2-[[(4S)-4-carboxy-4-(19-carboxynonadecanoylamino)butanoyl]amino]ethoxy]ethoxy]acetyl]-[Arg17,Pro21,Pro27,Pro29,Pro34]-h-amylin (peptide)
peptide: K([AEEA-γGlu-C20 diacid])CNTATCATQRLANFLRHSSPNFGAIPSPTNVGPNTY-NH2
modifications: disulfide 2-7; N-terminus assumed
SMILES: CC[C@H](C)[C@H](NC(=O)[C@H](C)NC(=O)CNC(=O)[C@H](Cc1ccccc1)NC(=O)[C@H](CC(N)=O)NC(=O)[C@@H]1CCCN1C(=O)[C@H](CO)NC(=O)[C@H](CO)NC(=O)[C@H](Cc1c[nH]cn1)NC(=O)[C@H](CCCNC(=N)N)NC(=O)[C@H](CC(C)C)NC(=O)[C@H](Cc1ccccc1)NC(=O)[C@H](CC(N)=O)NC(=O)[C@H](C)NC(=O)[C@H](CC(C)C)NC(=O)[C@H](CCCNC(=N)N)NC(=O)[C@H](CCC(N)=O)NC(=O)[C@@H](NC(=O)[C@H](C)NC(=O)[C@@H]1CSSC[C@H](NC(=O)[C@@H](N)CCCCNC(=O)COCCOCCNC(=O)CC[C@H](NC(=O)CCCCCCCCCCCCCCCCCCC(=O)O)C(=O)O)C(=O)N[C@@H](CC(N)=O)C(=O)N[C@@H]([C@@H](C)O)C(=O)N[C@@H](C)C(=O)N[C@@H]([C@@H](C)O)C(=O)N1)[C@@H](C)O)C(=O)N1CCC[C@H]1C(=O)N[C@@H](CO)C(=O)N1CCC[C@H]1C(=O)N[C@H](C(=O)N[C@@H](CC(N)=O)C(=O)N[C@H](C(=O)NCC(=O)N1CCC[C@H]1C(=O)N[C@@H](CC(N)=O)C(=O)N[C@H](C(=O)N[C@@H](Cc1ccc(O)cc1)C(N)=O)[C@@H](C)O)C(C)C)[C@@H](C)O
notes: Acylated analogue of human amylin; also called compound 56
B5: N^ε1-[2-[2-[2-[[(4S)-4-carboxy-4-(19-carboxynonadecanoylamino)butanoyl]amino]ethoxy]ethoxy]acetyl]-[Arg17,Pro21,Pro27,Pro31,His35]-h-amylin (peptide)
peptide: K([AEEA-γGlu-C20 diacid])CNTATCATQRLANFLRHSSPNFGAIPSSTPVGSHTY-NH2
modifications: disulfide 2-7; N-terminus assumed
SMILES: CC[C@H](C)[C@H](NC(=O)[C@H](C)NC(=O)CNC(=O)[C@H](Cc1ccccc1)NC(=O)[C@H](CC(N)=O)NC(=O)[C@@H]1CCCN1C(=O)[C@H](CO)NC(=O)[C@H](CO)NC(=O)[C@H](Cc1c[nH]cn1)NC(=O)[C@H](CCCNC(=N)N)NC(=O)[C@H](CC(C)C)NC(=O)[C@H](Cc1ccccc1)NC(=O)[C@H](CC(N)=O)NC(=O)[C@H](C)NC(=O)[C@H](CC(C)C)NC(=O)[C@H](CCCNC(=N)N)NC(=O)[C@H](CCC(N)=O)NC(=O)[C@@H](NC(=O)[C@H](C)NC(=O)[C@@H]1CSSC[C@H](NC(=O)[C@@H](N)CCCCNC(=O)COCCOCCNC(=O)CC[C@H](NC(=O)CCCCCCCCCCCCCCCCCCC(=O)O)C(=O)O)C(=O)N[C@@H](CC(N)=O)C(=O)N[C@@H]([C@@H](C)O)C(=O)N[C@@H](C)C(=O)N[C@@H]([C@@H](C)O)C(=O)N1)[C@@H](C)O)C(=O)N1CCC[C@H]1C(=O)N[C@@H](CO)C(=O)N[C@@H](CO)C(=O)N[C@H](C(=O)N1CCC[C@H]1C(=O)N[C@H](C(=O)NCC(=O)N[C@@H](CO)C(=O)N[C@@H](Cc1c[nH]cn1)C(=O)N[C@H](C(=O)N[C@@H](Cc1ccc(O)cc1)C(N)=O)[C@@H](C)O)C(C)C)[C@@H](C)O
notes: Acylated analogue of human amylin; also called compound 57
B6: N^ε1-[(4S)-4-carboxy-4-[[(4S)-4-carboxy-4-(19-carboxynonadecanoylamino)butanoyl]amino]butanoyl]-[D-Asp14,Arg17,Pro21,Pro27,Arg35]-h-amylin (peptide)
peptide: K([γGlu-γGlu-C20 diacid])CNTATCATQRLA[dD]FLRHSSPNFGAIPSSTNVGSRTY-NH2
modifications: disulfide 2-7; N-terminus assumed
SMILES: CC[C@H](C)[C@H](NC(=O)[C@H](C)NC(=O)CNC(=O)[C@H](Cc1ccccc1)NC(=O)[C@H](CC(N)=O)NC(=O)[C@@H]1CCCN1C(=O)[C@H](CO)NC(=O)[C@H](CO)NC(=O)[C@H](Cc1c[nH]cn1)NC(=O)[C@H](CCCNC(=N)N)NC(=O)[C@H](CC(C)C)NC(=O)[C@H](Cc1ccccc1)NC(=O)[C@@H](CC(=O)O)NC(=O)[C@H](C)NC(=O)[C@H](CC(C)C)NC(=O)[C@H](CCCNC(=N)N)NC(=O)[C@H](CCC(N)=O)NC(=O)[C@@H](NC(=O)[C@H](C)NC(=O)[C@@H]1CSSC[C@H](NC(=O)[C@@H](N)CCCCNC(=O)CC[C@H](NC(=O)CC[C@H](NC(=O)CCCCCCCCCCCCCCCCCCC(=O)O)C(=O)O)C(=O)O)C(=O)N[C@@H](CC(N)=O)C(=O)N[C@@H]([C@@H](C)O)C(=O)N[C@@H](C)C(=O)N[C@@H]([C@@H](C)O)C(=O)N1)[C@@H](C)O)C(=O)N1CCC[C@H]1C(=O)N[C@@H](CO)C(=O)N[C@@H](CO)C(=O)N[C@H](C(=O)N[C@@H](CC(N)=O)C(=O)N[C@H](C(=O)NCC(=O)N[C@@H](CO)C(=O)N[C@@H](CCCNC(=N)N)C(=O)N[C@H](C(=O)N[C@@H](Cc1ccc(O)cc1)C(N)=O)[C@@H](C)O)C(C)C)[C@@H](C)O

What follows are binders tested against T1, rat amylin receptor (rat calcitonin …) (assay: SPA competition vs 125I-rat amylin, membranes with rat CTR + rat RAMP3 (Assay VI)).

B1 and B2 are within 1.5-fold of each other in IC50: 0.084 nM for the first, 0.081 nM for the second.

B3 and B4 are within 1.5-fold of each other in IC50: 0.049 nM for the first, 0.04 nM for the second.

Work on B5 yielded an IC50 of 0.181 nM.

Each binder was assayed against T2, rat calcitonin receptor (assay: SPA competition vs 125I-calcitonin, membranes (Assay VIII)).

Binder B6 has an IC50 of 536 nM.

What follows are binders tested against T3, rat amylin receptor (rat calcitonin …) (assay: SPA competition vs 125I-rat amylin, membranes (Assay VI)).

B6 showed an IC50 of 1.69 nM.

Each binder was assayed against T4, rat calcitonin receptor (assay: SPA competition vs 125I-calcitonin, membranes with rat CTR (Assay VIII)).

Going from B1 to B2, the IC50 falls from 10.9 nM to 6.25 nM (1.7-fold). The second is the more potent here.

Going from B3 to B4, the IC50 falls from 8.79 nM to 5.26 nM (1.7-fold).

With B5 the IC50 was 24.4 nM.

Each binder was assayed against T4, rat calcitonin receptor (assay: ratio IC50 rat calcitonin receptor / IC50 rat amylin receptor).

Compared with B1, B2 is lower in “Ratio rCT/rAmylin binding” value: 130 for the first, 77.2 for the second.

First: B3
Second: B4
The “Ratio rCT/rAmylin binding” value of the first is higher: 179 for the first, 131 for the second.

B5 was tested, and the “Ratio rCT/rAmylin binding” value was 135.
